Results published in the supplement of paper PMC11246515.
± gives the standard deviation of the averaged measurements.

Assay: total protein half-life in vivo (active degradation + dilution); higher = more stable protein
[1] = E. coli NCM3722 delta-clpP delta-lon delta-hslV, growth: N-lim chemostat, doubling time 6 h
[2] = E. coli NCM3722 delta-clpP, growth: N-lim chemostat, doubling time 6 h
[3] = E. coli NCM3722 delta-hslV, growth: N-lim chemostat, doubling time 6 h
[4] = E. coli NCM3722 delta-lon, growth: N-lim chemostat, doubling time 6 h
[5] = E. coli NCM3722 delta-smpB, growth: N-lim chemostat, doubling time 6 h
[6] = wild type E. coli NCM3722, growth: C-lim chemostat, doubling time 3 h
[7] = wild type E. coli NCM3722, growth: C-lim chemostat, doubling time 6 h
[8] = wild type E. coli NCM3722, growth: C-lim chemostat, doubling time 12 h
[9] = wild type E. coli NCM3722, growth: N-lim chemostat, doubling time 6 h
[10] = wild type E. coli NCM3722, growth: N-lim chemostat, doubling time 12 h
[11] = wild type E. coli NCM3722, growth: P-lim chemostat, doubling time 6 h
[12] = wild type E. coli NCM3722, growth: P-lim chemostat, doubling time 12 h

Sequence | total protein half-life in vivo [1] [h] | total protein half-life in vivo [2] [h] | total protein half-life in vivo [3] [h] | total protein half-life in vivo [4] [h] | total protein half-life in vivo [5] [h] | total protein half-life in vivo [6] [h] | total protein half-life in vivo [7] [h] | total protein half-life in vivo [8] [h] | total protein half-life in vivo [9] [h] | total protein half-life in vivo [10] [h] | total protein half-life in vivo [11] [h] | total protein half-life in vivo [12] [h]
MAEFPASLLILNGKSTDNLPLREAIMLLREEGMTIHVRVTWEKGDAARYVEEARKFGVATVIAGGGDGTINEVSTALIQCEGDDIPALGILPLGTANDFATSVGIPEALDKALKLAIAGDAIAIDMAQVNKQTCFINMATGGFGTRITTETPEKLKAALGSVSYIIHGLMRMDTLQPDRCEIRGENFHWQGDALVIGIGNGRQAGGGQQLCPNALINDGLLQLRIFTGDEILPALVSTLKSDEDNPNIIEGASSWFDIQAPHDITFNLDGEPLSGQNFHIEILPAALRCRLPPDCPLLR | 5 ± 0.044 | 4.23 ± 0.21 | 3.94 ± 0.33 | 4.69 ± 0.069 | 4.31 ± 0.74 | 3.19 ± 0.41 | 5.73 ± 0.4 | 9.08 ± 0.56 | 4.51 ± 0.3 | 7.91 ± 0.14 | 5.17 ± 0.48 | 9.75 ± 0.16
MAEHRGGSGNFAEDREKASDAGRKGGQHSGGNFKNDPQRASEAGKKGGQQSGGNKSGKS | 0.599 | – | – | 1.5 | – | – | – | – | 1.49 | 1.92 ± 0.038 | – | –
MAEKFIKHTGLVVPLDAANVDTDAIIPKQFLQKVTRTGFGAHLFNDWRFLDEKGQQPNPDFVLNFPQYQGASILLARENFGCGSSREHAPWALTDYGFKVVIAPSFADIFYGNSFNNQLLPVKLSDAEVDELFALVKANPGIHFDVDLEAQEVKAGEKTYRFTIDAFRRHCMMNGLDSIGLTLQHDDAIAAYEAKQPAFMN | 3.91 ± 0.1 | 1.33 ± 0.047 | 2.363 ± 0.02 | 3.85 ± 0.072 | 2.306 ± 0.018 | 1.96 ± 0.16 | 3.02 ± 0.097 | 3.926 ± 0.038 | 2.54 ± 0.17 | 4.05 ± 1.3 | 2.1 ± 0.28 | 5.15 ± 0.8
MAEKKQWHETLHDQFGQYFAVDNVLYHEKTDHQDLIIFENAAFGRVMALDGVVQTTERDEFIYHEMMTHVPLLAHGHAKHVLIIGGGDGAMLREVTRHKNVESITMVEIDAGVVSFCRQYLPNHNAGSYDDPRFKLVIDDGVNFVNQTSQTFDVIISDCTDPIGPGESLFTSAFYEGCKRCLNPGGIFVAQNGVCFLQQEEAIDSHRKLSHYFSDVGFYQAAIPTYYGGIMTFAWATDNDALRHLSTEIIQARFLASGLKCRYYNPAIHTAAFALPQYLQDALASQPS | – | 4.62 ± 0.2 | 4.51 ± 0.12 | 4.89 ± 0.27 | 4.49 ± 0.41 | – | 7.06 ± 0.82 | 9.58 ± 0.14 | 4.21 ± 0.35 | 7.27 ± 0.36 | 5.86 ± 0.46 | 13 ± 2.3
MAEKQTAKRNRREEILQSLALMLESSDGSQRITTAKLAASVGVSEAALYRHFPSKTRMFDSLIEFIEDSLITRINLILKDEKDTTARLRLIVLLLLGFGERNPGLTRILTGHALMFEQDRLQGRINQLFERIEAQLRQVLREKRMREGEGYTTDETLLASQILAFCEGMLSRFVRSEFKYRPTDDFDARWPLIAAQLQ [P0C093] | 6.82 ± 0.62 | – | 5.04 ± 0.42 | 5.5 ± 0.72 | 4.65 ± 0.39 | 2.5806 ± 0.0014 | 5.49 ± 0.15 | 9.76 ± 1.4 | 4.89 ± 0.97 | 9.106 ± 0.086 | 4.14 ± 0.13 | 7.01 ± 0.77
MAEKRNIFLVGPMGAGKSTIGRQLAQQLNMEFYDSDQEIEKRTGADVGWVFDLEGEEGFRDREEKVINELTEKQGIVLATGGGSVKSRETRNRLSARGVVVYLETTIEKQLARTQRDKKRPLLHVETPPREVLEALANERNPLYEEIADVTIRTDDQSAKVVANQIIHMLESN [P0A6D7] | 4.84 ± 0.069 | 3.45 ± 0.24 | 2.76 ± 0.24 | 4.2 ± 0.64 | 2.69 ± 0.079 | 2.24 ± 0.27 | 3.989 ± 0.026 | 5.31 ± 0.22 | 2.26 ± 0.05 | 3.61 ± 0.34 | 2.62 ± 0.12 | 4.5 ± 0.26
MAELLLGVNIDHIATLRNARGTAYPDPVQAAFIAEQAGADGITVHLREDRRHITDRDVRILRQTLDTRMNLEMAVTEEMLAIAVETKPHFCCLVPEKRQEVTTEGGLDVAGQRDKMRDACKRLADAGIQVSLFIDADEEQIKAAAEVGAPFIEIHTGCYADAKTDAEQAQELARIAKAATFAASLGLKVNAGHGLTYHNVKAIAAIPEMHELNIGHAIIGRAVMTGLKDAVAEMKRLMLEARG [P0A794] | 5.813 ± 0.038 | 5.468 ± 0.049 | 5.95 ± 0.48 | 5.61 ± 0.29 | 5.4 ± 0.14 | 3.17 ± 0.12 | 5.5 ± 0.1 | 11.7 ± 0.53 | 5.9 ± 0.39 | 9.84 ± 0.17 | 6.06 ± 0.43 | –
MAELTALHTLTAQMKREGIRRLLVLSGEEGWCFEHTLKLRDALPGDWLWISPRPDAENHCSPSALQTLLGREFRHAVFDARHGFDAAAFAALSGTLKAGSWLVLLLPVWEEWENQPDADSLRWSDCPDPIATPHFVQHLKRVLTADNEAILWRQNQPFSLAHFTPRTDWYPATGAPQPEQQQLLKQLMTMPPGVAAVTAARGRGKSALAGQLISRIAGRAIVTAPAKASTDVLAQFAGEKFRFIAPDALLASDEQADWLVVDEAAAIPAPLLHQLVSRFPRTLLTTTVQGYEGTGRGFLLKFCARFPHLHRFELQQPIRWAQGCPLEKMVSEALVFDDENFTHTPQGNIVISAFEQTLWQSDPETPLKVYQLLSGAHYRTSPLDLRRMMDAPGQHFLQAAGENEIAGALWLVDEGGLSQQLSQAVWAGFRRPRGNLVAQSLAAHGNNPLAATLRGRRVSRIAVHPARQREGTGRQLIAGALQYTQDLDYLSVSFGYTGELWRFWQRCGFVLVRMGNHREASSGCYTAMALLPMSDAGKQLAEREHYRLRRDAQALAQWNGETLPVDPLNDAVLSDDDWLELAGFAFAHRPLLTSLGCLLRLLQTSELALPALRGRLQKNASDAQLCTTLKLSGRKMLLVRQREEAAQALFALNDVRTERLRDRITQWQLFH | 5 ± 1.1 | 4.59 ± 0.41 | 4.37 ± 0.39 | 4.56 ± 0.19 | 4.39 ± 0.29 | 3.04 ± 0.3 | 6.05 ± 0.38 | – | 4.07 ± 1.4 | 7.56 ± 0.58 | 6.65 ± 0.2 | 12.2 ± 1.5
